Measurements taken from the supplement of paper PMC10065799, “High-throughput profiling of sequence recognition by tyrosine kinases and SH2 domains using bacterial peptide display” (eLife, 2023).

How the values were obtained:
c-Src SH2 = experiment: SH2 binding enrichment of the phosphorylated peptide, bacterial display (enrichment ratio); higher = better substrate or ligand; peptides without Tyr show the background
SHP2-C SH2 = experiment: as above
Grb2 SH2 = Grb2 SH2 (UniProt P62993); experiment: as above
Chain of Grb2 SH2 (P62993 whole entry, looked up): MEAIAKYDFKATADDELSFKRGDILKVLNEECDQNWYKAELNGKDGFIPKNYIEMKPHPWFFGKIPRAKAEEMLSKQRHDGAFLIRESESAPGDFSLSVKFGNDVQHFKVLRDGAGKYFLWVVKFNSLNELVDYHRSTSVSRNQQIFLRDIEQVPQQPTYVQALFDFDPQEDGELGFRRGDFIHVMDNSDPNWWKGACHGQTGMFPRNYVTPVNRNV

FGFR1 = FGFR1 (UniProt P11362); experiment: phosphorylation enrichment, bacterial display (enrichment ratio); higher = better substrate or ligand; peptides without Tyr show the background
Jak2 = Jak2 (UniProt O60674); experiment: as above
Chain of Jak2 (O60674 whole entry, looked up): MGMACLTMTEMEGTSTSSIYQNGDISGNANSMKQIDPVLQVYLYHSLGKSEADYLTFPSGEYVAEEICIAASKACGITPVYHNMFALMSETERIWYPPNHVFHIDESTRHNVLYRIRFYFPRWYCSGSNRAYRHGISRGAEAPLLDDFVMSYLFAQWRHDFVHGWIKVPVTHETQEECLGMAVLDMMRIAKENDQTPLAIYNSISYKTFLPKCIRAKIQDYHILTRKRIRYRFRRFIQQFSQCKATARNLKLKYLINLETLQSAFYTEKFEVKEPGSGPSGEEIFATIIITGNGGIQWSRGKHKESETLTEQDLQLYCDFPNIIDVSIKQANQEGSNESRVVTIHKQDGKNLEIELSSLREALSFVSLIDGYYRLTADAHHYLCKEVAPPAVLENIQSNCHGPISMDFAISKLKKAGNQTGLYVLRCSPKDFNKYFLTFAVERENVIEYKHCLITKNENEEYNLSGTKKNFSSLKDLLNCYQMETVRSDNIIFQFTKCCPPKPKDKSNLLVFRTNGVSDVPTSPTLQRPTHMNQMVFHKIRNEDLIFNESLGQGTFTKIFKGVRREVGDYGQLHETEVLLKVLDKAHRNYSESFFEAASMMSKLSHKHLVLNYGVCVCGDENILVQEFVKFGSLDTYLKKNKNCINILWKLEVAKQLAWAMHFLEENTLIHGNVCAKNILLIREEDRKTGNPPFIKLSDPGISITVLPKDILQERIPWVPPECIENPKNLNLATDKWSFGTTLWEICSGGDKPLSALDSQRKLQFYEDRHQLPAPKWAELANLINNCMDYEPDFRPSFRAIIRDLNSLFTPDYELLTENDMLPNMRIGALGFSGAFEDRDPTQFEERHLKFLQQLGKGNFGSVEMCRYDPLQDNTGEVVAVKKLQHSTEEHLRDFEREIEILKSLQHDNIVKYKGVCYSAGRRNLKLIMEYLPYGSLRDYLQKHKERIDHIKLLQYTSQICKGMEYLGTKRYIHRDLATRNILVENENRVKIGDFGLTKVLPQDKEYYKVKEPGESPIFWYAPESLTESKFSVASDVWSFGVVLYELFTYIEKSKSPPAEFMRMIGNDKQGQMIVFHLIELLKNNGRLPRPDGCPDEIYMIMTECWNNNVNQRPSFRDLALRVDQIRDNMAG

EPHB2 = EPHB2 (UniProt P29323); experiment: as above
c-Abl (mouse) = experiment: as above
MERTK = MERTK (UniProt Q12866); experiment: as above
Chain of MERTK (Q12866 whole entry, looked up): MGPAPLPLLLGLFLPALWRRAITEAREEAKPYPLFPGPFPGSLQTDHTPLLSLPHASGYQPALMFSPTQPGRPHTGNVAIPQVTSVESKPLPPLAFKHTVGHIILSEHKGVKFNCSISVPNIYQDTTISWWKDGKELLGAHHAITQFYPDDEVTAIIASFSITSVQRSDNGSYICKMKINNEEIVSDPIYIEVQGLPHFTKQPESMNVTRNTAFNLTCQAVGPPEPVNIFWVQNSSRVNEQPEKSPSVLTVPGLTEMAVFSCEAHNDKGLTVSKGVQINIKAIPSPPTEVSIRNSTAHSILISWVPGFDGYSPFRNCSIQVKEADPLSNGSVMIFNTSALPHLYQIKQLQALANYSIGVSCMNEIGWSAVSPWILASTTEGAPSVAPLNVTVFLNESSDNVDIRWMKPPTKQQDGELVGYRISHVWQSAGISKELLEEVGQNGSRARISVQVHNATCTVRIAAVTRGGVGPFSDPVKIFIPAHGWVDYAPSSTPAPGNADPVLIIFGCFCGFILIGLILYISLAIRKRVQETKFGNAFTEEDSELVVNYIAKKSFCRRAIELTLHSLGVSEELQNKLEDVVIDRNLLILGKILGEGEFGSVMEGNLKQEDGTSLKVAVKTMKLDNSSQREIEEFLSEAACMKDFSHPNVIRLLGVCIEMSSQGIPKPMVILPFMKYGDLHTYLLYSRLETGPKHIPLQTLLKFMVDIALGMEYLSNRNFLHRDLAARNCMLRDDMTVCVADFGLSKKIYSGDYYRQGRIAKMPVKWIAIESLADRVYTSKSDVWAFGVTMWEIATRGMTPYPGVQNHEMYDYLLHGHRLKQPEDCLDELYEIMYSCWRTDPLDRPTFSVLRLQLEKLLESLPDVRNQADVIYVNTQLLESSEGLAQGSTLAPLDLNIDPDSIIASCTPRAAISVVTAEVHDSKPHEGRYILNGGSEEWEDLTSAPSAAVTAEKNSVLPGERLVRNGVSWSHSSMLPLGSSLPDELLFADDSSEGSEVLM

FGFR3 = FGFR3 (UniProt P22607); experiment: as above
AncSZ = experiment: as above
Hck = Hck (UniProt P08631); experiment: as above
Chain of Hck (P08631 whole entry, looked up): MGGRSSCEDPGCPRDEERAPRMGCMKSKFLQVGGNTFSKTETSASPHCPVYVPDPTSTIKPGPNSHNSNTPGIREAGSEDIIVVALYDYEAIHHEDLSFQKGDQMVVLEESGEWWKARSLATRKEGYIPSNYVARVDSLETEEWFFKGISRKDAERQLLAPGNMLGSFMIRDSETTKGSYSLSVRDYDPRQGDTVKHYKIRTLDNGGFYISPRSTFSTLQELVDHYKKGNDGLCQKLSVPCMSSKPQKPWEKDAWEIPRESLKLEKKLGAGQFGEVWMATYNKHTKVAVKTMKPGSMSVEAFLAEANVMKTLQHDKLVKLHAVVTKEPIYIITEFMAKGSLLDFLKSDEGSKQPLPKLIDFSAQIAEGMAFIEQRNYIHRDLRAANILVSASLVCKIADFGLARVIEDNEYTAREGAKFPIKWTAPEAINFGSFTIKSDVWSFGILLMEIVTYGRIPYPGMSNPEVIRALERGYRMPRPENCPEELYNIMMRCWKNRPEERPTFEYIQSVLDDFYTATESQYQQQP

Fes = Fes (UniProt P07332); experiment: as above
Chain of Fes (P07332 whole entry, looked up): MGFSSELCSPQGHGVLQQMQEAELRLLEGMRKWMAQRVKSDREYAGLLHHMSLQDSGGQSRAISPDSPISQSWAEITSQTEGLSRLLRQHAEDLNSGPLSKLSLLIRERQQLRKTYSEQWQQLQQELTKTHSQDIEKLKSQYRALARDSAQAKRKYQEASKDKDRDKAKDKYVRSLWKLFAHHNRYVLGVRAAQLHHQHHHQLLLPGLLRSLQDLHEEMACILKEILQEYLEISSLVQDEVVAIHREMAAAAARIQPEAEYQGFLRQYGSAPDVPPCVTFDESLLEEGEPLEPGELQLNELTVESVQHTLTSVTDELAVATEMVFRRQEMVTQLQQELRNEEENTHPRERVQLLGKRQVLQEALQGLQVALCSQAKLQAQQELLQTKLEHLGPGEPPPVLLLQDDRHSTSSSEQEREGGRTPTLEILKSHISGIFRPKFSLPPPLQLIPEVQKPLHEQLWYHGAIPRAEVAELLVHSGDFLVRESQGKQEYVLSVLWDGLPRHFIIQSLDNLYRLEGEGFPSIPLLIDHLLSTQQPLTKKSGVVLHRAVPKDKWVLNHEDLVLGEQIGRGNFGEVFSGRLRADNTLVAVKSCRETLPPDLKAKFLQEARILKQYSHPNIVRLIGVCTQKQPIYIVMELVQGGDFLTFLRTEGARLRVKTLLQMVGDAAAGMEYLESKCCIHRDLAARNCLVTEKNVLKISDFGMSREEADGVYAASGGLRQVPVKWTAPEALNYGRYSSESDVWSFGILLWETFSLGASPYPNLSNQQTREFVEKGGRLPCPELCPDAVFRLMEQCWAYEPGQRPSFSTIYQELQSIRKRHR

EPHB1 = EPHB1 (UniProt P54762); experiment: as above
Chain of EPHB1 (P54762 whole entry, looked up): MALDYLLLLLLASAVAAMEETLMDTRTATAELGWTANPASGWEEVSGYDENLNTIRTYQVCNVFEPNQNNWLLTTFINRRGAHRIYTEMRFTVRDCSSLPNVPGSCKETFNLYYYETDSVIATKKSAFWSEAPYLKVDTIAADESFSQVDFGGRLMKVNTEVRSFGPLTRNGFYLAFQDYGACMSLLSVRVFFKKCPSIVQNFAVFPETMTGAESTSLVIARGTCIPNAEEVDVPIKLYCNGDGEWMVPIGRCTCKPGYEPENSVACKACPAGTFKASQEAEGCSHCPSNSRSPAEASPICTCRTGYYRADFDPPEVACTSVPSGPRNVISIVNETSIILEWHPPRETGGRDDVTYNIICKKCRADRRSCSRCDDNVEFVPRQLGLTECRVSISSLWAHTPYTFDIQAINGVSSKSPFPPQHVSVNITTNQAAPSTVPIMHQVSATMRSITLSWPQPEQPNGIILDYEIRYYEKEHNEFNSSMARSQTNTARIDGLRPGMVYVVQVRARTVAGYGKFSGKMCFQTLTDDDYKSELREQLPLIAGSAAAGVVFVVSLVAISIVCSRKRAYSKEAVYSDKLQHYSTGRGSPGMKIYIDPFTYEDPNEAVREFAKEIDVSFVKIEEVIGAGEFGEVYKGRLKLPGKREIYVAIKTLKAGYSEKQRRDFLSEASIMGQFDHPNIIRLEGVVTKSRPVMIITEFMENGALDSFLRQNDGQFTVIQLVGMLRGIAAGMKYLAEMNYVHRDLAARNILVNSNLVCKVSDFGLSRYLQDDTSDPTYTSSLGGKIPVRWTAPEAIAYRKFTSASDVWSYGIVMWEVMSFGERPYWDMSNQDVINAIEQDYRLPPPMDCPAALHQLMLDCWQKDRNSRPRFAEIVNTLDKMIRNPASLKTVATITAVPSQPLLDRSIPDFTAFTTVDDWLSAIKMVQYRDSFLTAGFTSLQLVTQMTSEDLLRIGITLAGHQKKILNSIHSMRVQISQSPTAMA

Fyn = Fyn (UniProt P06241); experiment: as above
c-Src = experiment: as above
Fer (mouse) = experiment: as above
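Throughout, for SH2 binding enrichment of the phosphorylated peptide, bacterial display: peptide library displayed on the E. coli surface as eCPX fusions, selected cells deep-sequenced, score is each peptide's frequency after selection divided by its frequency in the input.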
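Throughout, for phosphorylation enrichment, bacterial display: 11-residue human phosphosite peptides and single-mutation variants displayed on the E. coli surface, counted by deep sequencing, each peptide's frequency after selection divided by its frequency in the unselected input library; frequency after pTyr selection over input frequency; kinase dosed for 20-30% of maximal phosphorylation in three min.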

Sequence | SH2 binding enrichment (c-Src SH2) | SH2 binding enrichment (SHP2-C SH2) | SH2 binding enrichment (Grb2 SH2) | phosphorylation enrichment (FGFR1) | phosphorylation enrichment (Jak2) | phosphorylation enrichment (EPHB2) | phosphorylation enrichment (c-Abl (mouse)) | phosphorylation enrichment (MERTK) | phosphorylation enrichment (FGFR3) | phosphorylation enrichment (AncSZ) | phosphorylation enrichment (Hck) | phosphorylation enrichment (Fes) | phosphorylation enrichment (EPHB1) | phosphorylation enrichment (Fyn) | phosphorylation enrichment (c-Src) | phosphorylation enrichment (Fer (mouse))
AAETTYDKILK [GDNF_Y156] | 3.75 | 1.28 | 0.708 | 0.467 | 0.888 | 0.496 | 0.521 | 0.376 | 0.725 | 0.886 | 1.36 | 1.09 | 0.555 | 0.596 | 0.501 | 0.474
AAVDNYCRHNY [HLA-DRB1_Y107_T106N] | 0.631 | 0.72 | 0.765 | 0.521 | 0.612 | 0.669 | 0.502 | 0.46 | 0.649 | 0.621 | 0.461 | 0.808 | 0.519 | 0.388 | 0.376 | 0.427
AAVNGYVFGGG [ECHS1_Y137_A138V] | 0.489 | 0.994 | 0.791 | 0.437 | 0.591 | 0.398 | 0.582 | 0.401 | 0.629 | 0.596 | 0.429 | 0.542 | 0.419 | 0.404 | 0.461 | 0.414
ADFFDYGHGLS [KHDRBS3_Y304_YF] | 0.437 | 0.741 | 0.863 | 0.459 | 1.03 | 0.38 | 0.76 | 0.434 | 0.727 | 0.709 | 0.522 | 0.905 | 0.585 | 0.438 | 0.449 | 0.433
ADKAAYLQSMN [MYH2_Y389_L393M] | 0.449 | 0.525 | 0.788 | 0.47 | 0.609 | 0.419 | 0.591 | 0.366 | 0.654 | 0.499 | 0.436 | 0.761 | 0.545 | 0.415 | 0.459 | 0.411
ADRNHYRRYRR [YBX1_Y145_P149R] | 0.538 | 0.467 | 0.513 | 0.532 | 0.549 | 0.499 | 0.661 | 0.532 | 0.572 | 0.619 | 0.522 | 0.861 | 0.522 | 0.525 | 0.608 | 0.488
ADRSCYDLSCR [GARS1_Y467_H472R] | 1.17 | 0.779 | 1.06 | 0.499 | 0.8 | 0.591 | 0.847 | 0.445 | 0.55 | 0.849 | 0.594 | 0.835 | 0.487 | 0.572 | 0.616 | 0.474
ADSLRYIYPKL [EIF2B3_Y92] | 12.5 | 1.89 | 1.05 | 0.354 | 0.634 | 0.362 | 0.471 | 0.43 | 0.463 | 0.552 | 0.386 | 0.602 | 0.416 | 0.332 | 0.472 | 0.339
ADYYDYGHGLS [KHDRBS3_Y304] | 0.601 | 0.634 | 1.04 | 18.5 | 5.75 | 20.5 | 0.986 | 4.16 | 16.8 | 3.92 | 6.46 | 1.11 | 17.9 | 6.6 | 4.65 | 1.95
AELVQYFMEHH [PTPN11_Y80_YF] | 0.473 | 0.84 | 1.05 | 0.652 | 0.695 | 0.545 | 0.547 | 0.508 | 0.762 | 1.02 | 0.66 | 1.08 | 0.618 | 0.623 | 0.437 | 0.463
AESPEHVHMYT [FAM111A_Y511_Y511H] | 0.489 | 0.674 | 0.822 | 0.533 | 0.687 | 0.474 | 0.476 | 0.377 | 0.609 | 0.812 | 0.547 | 0.861 | 0.523 | 0.476 | 0.369 | 0.432
AEYGLYGAMVR [VSX2_Y222] | 0.508 | 0.636 | 0.806 | 0.456 | 0.675 | 2.5 | 0.908 | 1.97 | 0.604 | 0.99 | 6.91 | 0.786 | 0.824 | 7.64 | 5.06 | 2.03
AFEQQYSPIPR [NOX1_Y373] | 0.508 | 0.724 | 0.772 | 1.07 | 0.583 | 0.512 | 0.701 | 1.25 | 0.769 | 0.767 | 4.92 | 0.707 | 0.404 | 0.624 | 0.989 | 0.451
AFGTVYKGLWI [EGFR_Y727] | 0.628 | 1.3 | 0.857 | 0.517 | 1.16 | 0.587 | 0.724 | 0.39 | 0.755 | 1.2 | 0.525 | 1.13 | 0.532 | 0.593 | 0.619 | 0.511
